Publication PMC6197184, “Cyclophilin J limits inflammation through the blockage of ubiquitin chain sensing” (Nature Communications, 2018)

T1: His-CYPJ (recombinant) (human, UniProt Q9H2H8 1-161)
T1 chain: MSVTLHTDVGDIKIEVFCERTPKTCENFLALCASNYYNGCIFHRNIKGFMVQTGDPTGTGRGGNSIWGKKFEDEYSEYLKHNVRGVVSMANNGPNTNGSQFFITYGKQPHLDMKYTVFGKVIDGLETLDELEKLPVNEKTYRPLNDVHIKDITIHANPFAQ

T2: His-CYPJ (recombinant) (human, UniProt Q9H2H8 1-161)
T2 construct: cyclophilin J (CYPJ, PPIL3), human; also called recombinant His-CYPJ
T2 sequence (looked up): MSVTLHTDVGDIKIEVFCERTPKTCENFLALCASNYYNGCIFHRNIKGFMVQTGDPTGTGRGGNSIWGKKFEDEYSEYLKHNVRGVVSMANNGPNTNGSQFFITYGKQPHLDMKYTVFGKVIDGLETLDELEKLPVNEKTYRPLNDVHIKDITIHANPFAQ

B1: TAB3-NZF peptide (peptide)
peptide: WNCDSCTFLNHPALNRCEQCEMP
notes: peptide from the NZF domain of TAB3; limits counted from C706 named in the introduction; source: synthetic peptide (DgPeptides)
B2: TAB2-NZF peptide (peptide)
peptide: QWNCTACTFLNHPALIRCEQCEMP
notes: peptide from the NZF domain of TAB2; limits counted from C670 and C673 named in the introduction; source: synthetic peptide (DgPeptides)

How the values were obtained:
His-CYPJ (recombinant) [1] = target: T1, His-CYPJ (recombinant); assay: ITC
His-CYPJ (recombinant) [2] = target: T2, His-CYPJ (recombinant); assay: ITC; synthetic NZF peptides and His-CYPJ; MicroCal iTC200, standard procedure; details: both partners purified

| Binder | Ka (His-CYPJ (recombinant) [1]) [M⁻¹] | binding result (His-CYPJ (recombinant) [2]) |
| --- | --- | --- |
| B1 | 1030 | binds |
| B2 | 283 | binds |
